{
  "source": "patent US20240116985A1",
  "about": "“STAPLED PEPTIDES AND METHODS THEREOF” (priority 2020, published 2024)",
  "binders": {"B1": {"name": "I-2599 (peptide)", "peptide": "4pentenyl-XD[B5(3)]ADDAAF[PyrS2]L[3Thi][Bta]Q-NH2", "modifications": "staple 3-10; staple (positions not given here); not fully specified (residue 1, bridges); printed as 4pentenyl-MePro-Asp-B5-Ala-Asp-Asp-Ala-Ala-Phe-PyrS2-Leu-3Thi-BztA-Gln-NH2"}},
  "key": {"[1]": {"molecular_target": "full-length beta-Catenin (Uniprot ID P35222) (Homo sapiens (Human)) (UniProt P35222)", "assay": "fluorescence polarization competition; 5FAM-TCF4 10-53 probe on full-length beta-catenin"}, "[2]": {"molecular_target": "Bcat-Halo (UniProt P35222)", "sequence (P35222 whole entry)": "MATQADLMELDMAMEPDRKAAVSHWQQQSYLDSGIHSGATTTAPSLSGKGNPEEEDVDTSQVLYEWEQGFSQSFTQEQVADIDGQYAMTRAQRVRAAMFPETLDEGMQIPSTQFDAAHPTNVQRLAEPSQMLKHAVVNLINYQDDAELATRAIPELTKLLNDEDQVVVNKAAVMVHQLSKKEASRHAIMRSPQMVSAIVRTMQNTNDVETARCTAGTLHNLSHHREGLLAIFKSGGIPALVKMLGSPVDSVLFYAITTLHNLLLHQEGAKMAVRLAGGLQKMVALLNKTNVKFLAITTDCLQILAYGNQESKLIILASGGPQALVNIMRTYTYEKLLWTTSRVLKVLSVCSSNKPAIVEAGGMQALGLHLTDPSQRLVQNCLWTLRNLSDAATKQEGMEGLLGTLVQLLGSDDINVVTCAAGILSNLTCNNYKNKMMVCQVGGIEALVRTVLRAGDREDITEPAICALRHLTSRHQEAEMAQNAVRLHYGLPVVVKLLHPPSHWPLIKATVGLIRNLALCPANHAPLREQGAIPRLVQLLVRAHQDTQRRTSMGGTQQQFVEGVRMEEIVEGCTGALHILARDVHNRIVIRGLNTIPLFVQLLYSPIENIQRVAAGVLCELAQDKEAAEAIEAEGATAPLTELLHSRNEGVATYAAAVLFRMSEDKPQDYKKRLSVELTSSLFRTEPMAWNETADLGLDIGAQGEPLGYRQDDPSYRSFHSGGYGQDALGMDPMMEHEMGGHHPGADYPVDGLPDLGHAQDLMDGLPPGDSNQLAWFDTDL", "assay": "NanoBRET Abs IC50; Bcat-Halo/TCF4-Luc engagement in HEK293 cells"}, "[3]": {"molecular_target": "full-length beta-Catenin (Uniprot ID P35222) (Homo sapiens (Human)) (UniProt P35222)", "assay": "fluorescence polarization competition, peptide titrated against full-length beta-catenin + 5FAM-TCF4(10-53)"}, "[4]": {"molecular_target": "full-length beta-Catenin (Uniprot ID P35222) (Homo sapiens (Human)) (UniProt P35222)", "assay": "fluorescence polarization competition; 10 nM full-length beta-catenin; competitor 5FAM-TCF4 10-53 probe"}, "[5]": {"molecular_target": "Bcat-Halo (UniProt P35222)", "assay": "NanoBRET Abs IC50 (absolute IC50) in HEK293 cells, Bcat-Halo / TCF4-Luc engagement"}, "[6]": {"molecular_target": "full-length beta-Catenin (Uniprot ID P35222) (Homo sapiens (Human)) (UniProt P35222)", "assay": "fluorescence polarization competition, full-length beta-catenin with 5FAM-TCF4(10-53) probe"}, "[7]": {"molecular_target": "Bcat-Halo (UniProt P35222)", "assay": "NanoBRET in HEK293 cells, Bcat-Halo / TCF4-Luc; absolute IC50"}, "[8]": {"molecular_target": "full-length beta-Catenin (Uniprot ID P35222) (Homo sapiens (Human)) (UniProt P35222)", "assay": "FP competition; full-length beta-catenin, competitor 5FAM-TCF4(10-53)"}, "[9]": {"molecular_target": "full-length beta-Catenin (Uniprot ID P35222) (Homo sapiens (Human)) (UniProt P35222)", "assay": "fluorescence polarization competition; full-length beta-catenin + 5FAM-TCF4 10-53 probe, peptide titrated"}, "[10]": {"molecular_target": "full-length beta-Catenin (Uniprot ID P35222) (Homo sapiens (Human)) (UniProt P35222)", "assay": "AlphaScreen competition; full-length beta-catenin with biotin-TCF4(10-53) probe as competitor"}, "[11]": {"molecular_target": "full-length beta-Catenin (Uniprot ID P35222) (Homo sapiens (Human)) (UniProt P35222)", "assay": "fluorescence polarization competition; 10 nM full-length beta-catenin + 10 nM 5FAM-TCF4(10-53) as competitor probe; peptide titrated (top concentration 10 uM)"}, "[12]": {"molecular_target": "Bcat-Halo (UniProt P35222)", "assay": "NanoBRET Abs IC50; HEK293 cells transfected with B-cat-Halo and TCF4-Luc"}, "[13]": {"molecular_target": "full-length beta-Catenin (Uniprot ID P35222) (Homo sapiens (Human)) (UniProt P35222)", "assay": "fluorescence polarization competition; full-length beta-catenin, 5FAM-TCF4(10-53) probe"}, "[14]": {"molecular_target": "full-length beta-Catenin (Uniprot ID P35222) (Homo sapiens (Human)) (UniProt P35222)", "assay": "fluorescence polarization competition against 5FAM TCF4 10-53 probe"}, "[15]": {"molecular_target": "Bcat-Halo (UniProt P35222)", "assay": "NanoBRET in HEK293 cells, B-cat-Halo/TCF4-Luc, absolute IC50"}},
  "note": "Starred links: 1 amine or outer side, 2 acyl side, 3 side chain; linkers in the order of their positions; H or OH if unused. Positions of bridges follow the written chain, without caps; N, C: chain ends. Non-standard residues stand in square brackets, D forms with d. Primed or numbered codes have the meaning given here. *: point of attachment. PyrS2″ = (S)-3-amino-1-((pent-4-en-1-yloxy)carbonyl)pyrrolidine-3-carboxylic acid (stapling residue), C=CCCCOC(=O)N1CC[C@@](N[*:1])(C(=O)[*:2])C1; B5(4) = 2,2-bis(4-pentenyl)glycine = 2-amino-2-(pent-4-en-1-yl)hept-6-enoic acid (stitching residue), C=CCCCC(CCCC=C)(N[*:1])C(=O)[*:2]; TfeGA = (S)-2-amino-3-((carboxymethyl)(2,2,2-trifluoroethyl)amino)propanoic acid, O=C([C@H](CN(CC(=O)[*:3])CC(F)(F)F)N[*:1])[*:2]; PyrS2 = (S)-3-amino-1-((pent-4-en-1-yloxy)carbonyl)pyrrolidine-3-carboxylic acid, C=CCCCOC(=O)N1CC[C@@](N[*:1])(C(=O)[*:2])C1; B5(12) = 2-amino-2-(pent-4-en-1-yl)hept-6-enoic acid (two olefin side chains), C=CCCCC(CCCC=C)(N[*:1])C(=O)[*:2]; B5(3) = 2,2-bis(4-pentenyl)glycine (stitching residue), C=CCCCC(CCCC=C)(N[*:1])C(=O)[*:2]; B5 = 2-amino-2-(pent-4-en-1-yl)hept-6-enoic acid, C=CCCCC(CCCC=C)(N[*:1])C(=O)[*:2]; 4pentenyl = N-terminal pent-4-enoic acid (acyl cap), C=CCCC(=O)*; Phe(2-Cl) = N[C@@H](Cc1ccccc1Cl)C(=O)O; 2Nal = N[C@@H](Cc1ccc2ccccc2c1)C(=O)O; Bta = N[C@@H](Cc1csc2ccccc12)C(=O)O; αAllylPro = C=CC[C@@]1(C(=O)O)CCCN1; tBuAla = CC(C)(C)C[C@H](N)C(=O)O; 3Thi = N[C@@H](Cc1ccsc1)C(=O)O; S8 = C=CCCCCCC[C@](C)(N)C(=O)O; hSer = N[C@@H](CCO)C(=O)O",
  "data": [
    {"binder": "Ac-[αAllylPro]D[tBuAla][B5]DDAAFN[PyrS2″][3Thi][Bta][dN]-NH2 (staple 1-4, 4-11)", "note": "[I-818]", "values": [
      {"measurement": "IC50", "setting": "[1]", "result": 6, "unit": "nM"},
      {"measurement": "IC50", "setting": "[2]", "result": 15000, "unit": "nM"},
      {"measurement": "EC50", "setting": "[3]", "result": 6, "unit": "nM"}
    ]},
    {"binder": "Ac-[αAllylPro]D[tBuAla][B5(3)]D[TfeGA]AAFF[PyrS2″][Phe(2-Cl)][Bta]Q-NH2 (staple 1-4, 4-11)", "note": "[I-923]", "values": [
      {"measurement": "IC50", "setting": "[4]", "result": 27, "unit": "nM"},
      {"measurement": "IC50", "setting": "[5]", "result": 6000, "unit": "nM"},
      {"measurement": "EC50", "setting": "[6]", "result": 27, "unit": "nM"}
    ]},
    {"binder": "Ac-[αAllylPro]D[tBuAla][B5(4)]DDAAF[hSer][S8]F[Bta]Q-NH2 (staple 1-4, 4-11)", "note": "[I-1388]", "values": [
      {"measurement": "IC50", "setting": "[7]", "result": 11300, "unit": "nM"},
      {"measurement": "EC50", "setting": "[8]", "result": 18, "unit": "nM"},
      {"measurement": "IC50", "setting": "[9]", "result": 18, "unit": "nM"}
    ]},
    {"binder": "Ac-[αAllylPro]DA[B5(12)]DEAAFV[S8]F[2Nal]-NH2 (staple 1-4, 4-11)", "note": "[I-141]", "values": [
      {"measurement": "EC50", "setting": "[10]", "result": 5450, "unit": "nM"}
    ]},
    {"binder": "Ac-[αAllylPro]D[tBuAla][B5(4)]NTAAFF[PyrS2″][3Thi][Bta]Q-NH2 (staple 1-4, 4-11)", "note": "[I-1740]", "values": [
      {"measurement": "IC50", "setting": "[11]", "result": 10000, "unit": "nM"}
    ]},
    {"binder": "Ac-[αAllylPro]D[tBuAla][B5]NTAAFN[PyrS2][3Thi][Bta]A-NH2 (staple 1-4, 4-11; also: earlier eluting HPLC isomer)", "note": "[I-2142]", "values": [
      {"measurement": "IC50", "setting": "[12]", "result": "> 20000", "unit": "nM"},
      {"measurement": "IC50", "setting": "[13]", "result": 271, "unit": "nM"}
    ]},
    {"binder": "B1", "values": [
      {"measurement": "IC50", "setting": "[14]", "result": 234, "unit": "nM"},
      {"measurement": "IC50", "setting": "[15]", "result": "> 20000", "unit": "nM"}
    ]}
  ]
}
